Experiment [1] concerns the target recombinant SARS-CoV-2 spike protein (S) (SARS-CoV-2, UniProt P0DTC2 16-1213).
In experiment [2] the target is recombinant human vimentin (human, UniProt P08670 2-466, limits assumed). Nature of the experiment: ELISA: increasing concentrations of A2 variant on recombinant human vimentin, bound A2 detected with anti-A2 antibody and a secondary HRP conjugate.
Chain of recombinant human vimentin (P08670 2-466 limits assumed): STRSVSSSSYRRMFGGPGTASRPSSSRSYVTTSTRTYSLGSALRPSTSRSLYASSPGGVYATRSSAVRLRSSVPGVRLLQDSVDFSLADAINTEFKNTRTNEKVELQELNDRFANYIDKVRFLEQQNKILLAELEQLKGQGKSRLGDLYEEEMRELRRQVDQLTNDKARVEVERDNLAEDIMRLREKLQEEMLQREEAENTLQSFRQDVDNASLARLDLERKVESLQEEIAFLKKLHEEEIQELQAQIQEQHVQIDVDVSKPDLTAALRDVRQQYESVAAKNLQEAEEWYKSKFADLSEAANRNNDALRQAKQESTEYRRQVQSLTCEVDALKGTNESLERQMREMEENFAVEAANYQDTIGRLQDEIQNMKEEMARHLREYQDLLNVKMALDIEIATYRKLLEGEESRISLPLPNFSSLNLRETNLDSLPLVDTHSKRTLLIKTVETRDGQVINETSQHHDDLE

B1: recombinant A2 domain of human von Willebrand factor (WT A2 protein) (other)
chain: GLLGVSTLGPKRNSMVLDVAFVLEGSDKIGEADFNRSKEFMEEVIQRMDVGQDSIHVTVLQYSYMVTVEYPFSEAQSKGDILQRVREIRYQGGNRTNTGLALRYLSDHSFLVSQGDREQAPNLVYMVTGNPASDEIKRLPGDIQVVPIGVGPNANVQELERIGWPNAPILIQDFETLPREAPDLVLQR
modifications: conjugated to Alexa Fluor 488 in the confocal microscopy experiments only
notes: not shown: histidine tag (vector pQE-9/VWF-A2)
By EC50 (read off the curve) is commonly meant the concentration needed to bring the measured effect to its halfway point. For B1, the binding result in experiment [1] is recorded as “no binding”. In addition, the “EC50 (read off the curve)” value in experiment [2] was roughly 40 nM.

B2: recombinant A2 (E1567A) mutant of the A2 domain of human von Willebrand factor (other)
chain: GLLGVSTLGPKRNSMVLDVAFVLEGSDKIGEADFNRSKEFMEEVIQRMDVGQDSIHVTVLQYSYMVTVEYPFSEAQSKGDILQRVRAIRYQGGNRTNTGLALRYLSDHSFLVSQGDREQAPNLVYMVTGNPASDEIKRLPGDIQVVPIGVGPNANVQELERIGWPNAPILIQDFETLPREAPDLVLQR
notes: also called A2 mutant; A2 mutant protein; not shown: Histidine tag from the pQE-9 vector
With B2, the “EC50 (read off the curve)” value in experiment [2] was roughly 70 nM.

The record behind these values is patent publication US20220193204A1 (BAYLOR COLLEGE OF MEDICINE, published 2022).
